Measurements: patent US20220380445A1 (Ablynx, published 2022)
Each block holds one binder with its values, some of them ahead of it.

Assays:
mouse serum albumin = mouse serum albumin (mouse, UniProt P07724 25-608); test: ProteOn kinetic analysis
human serum albumin [1] = target: T1, human serum albumin (human, UniProt P02768 25-609); test: ProteOn kinetic analysis
T1 construct: Amine-coupled to the chip (EDC/NHS); also called HSA

guinea pig serum albumin = guinea pig serum albumin (guinea pig); test: ProteOn kinetic analysis
cyno serum albumin = cyno serum albumin (cyno, UniProt A2V9Z4 25-608); test: ProteOn kinetic analysis
rat serum albumin = rat serum albumin (rat, UniProt P02770 25-608); test: ProteOn kinetic analysis
human serum albumin [2] = target: T1, human serum albumin; test: ProteOn SPR; Nanobody on immobilized human serum albumin; Langmuir simultaneous ka/kd fit
Experimental: (§1) PBS/Tween (phosphate buffered saline, pH7.4, 0.005% Tween20) was used as running buffer and the experiments were performed at 25° C. […] After immobilization, surfaces were deactivated with ethanolamine HCl (flow rate 30 μl/min). Nanobodies were injected for 2 minutes at 45 μl/min over the HSA surface to render a Nanobody capture level of approximately 200 RU. […] After each cycle (i.e. before a new Nanobody capture and blood sample injection step) the HSA surfaces were regenerated with a 2 minute injection of HCl (100 mM) at 45 μl/min. Sensorgram processing and data analysis was performed with ProteOn Manager 3.1.0 (Bio-Rad Laboratories, Inc.).
(§2) Also, for the serum albumin binders tested, a kinetic analysis was performed of the binding interaction with the immobilized serum albumin (Langmuir, simultaneous ka/kd model).

human serum albumin [3] = target: T1, human serum albumin; test: as above; remark: listed apart in the source
Experimental: as §1, §2

human serum albumin [4] = target: T1, human serum albumin; test: as above; remark: listed apart in the source
Experimental: as §1, §2

human serum albumin [5] = target: T1, human serum albumin; test: as above; remark: listed apart in the source
Experimental: as §1, §2

human serum albumin [6] = target: T1, human serum albumin; test: as above; remark: listed apart in the source
Experimental: as §1, §2

human serum albumin [7] = target: T1, human serum albumin; test: as above; remark: listed apart in the source
Experimental: as §1, §2

Chain of cyno serum albumin (A2V9Z4 25-608 limits assumed): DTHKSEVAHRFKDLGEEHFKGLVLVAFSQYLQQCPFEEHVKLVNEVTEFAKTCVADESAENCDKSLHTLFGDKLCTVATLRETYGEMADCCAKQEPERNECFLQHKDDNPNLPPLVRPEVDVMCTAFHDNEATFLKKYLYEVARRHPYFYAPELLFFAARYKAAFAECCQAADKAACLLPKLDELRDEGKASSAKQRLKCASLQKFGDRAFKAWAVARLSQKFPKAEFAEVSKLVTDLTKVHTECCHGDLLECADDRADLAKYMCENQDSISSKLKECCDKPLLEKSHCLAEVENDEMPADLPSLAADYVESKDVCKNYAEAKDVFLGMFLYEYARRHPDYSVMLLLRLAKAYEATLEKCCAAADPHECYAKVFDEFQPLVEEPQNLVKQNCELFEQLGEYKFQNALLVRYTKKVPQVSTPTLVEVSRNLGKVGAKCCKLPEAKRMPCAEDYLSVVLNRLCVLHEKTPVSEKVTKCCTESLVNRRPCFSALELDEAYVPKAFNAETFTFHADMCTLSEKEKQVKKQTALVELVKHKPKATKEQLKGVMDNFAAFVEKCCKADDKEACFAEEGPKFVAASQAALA
T1 sequence (P02768 25-609 limits assumed): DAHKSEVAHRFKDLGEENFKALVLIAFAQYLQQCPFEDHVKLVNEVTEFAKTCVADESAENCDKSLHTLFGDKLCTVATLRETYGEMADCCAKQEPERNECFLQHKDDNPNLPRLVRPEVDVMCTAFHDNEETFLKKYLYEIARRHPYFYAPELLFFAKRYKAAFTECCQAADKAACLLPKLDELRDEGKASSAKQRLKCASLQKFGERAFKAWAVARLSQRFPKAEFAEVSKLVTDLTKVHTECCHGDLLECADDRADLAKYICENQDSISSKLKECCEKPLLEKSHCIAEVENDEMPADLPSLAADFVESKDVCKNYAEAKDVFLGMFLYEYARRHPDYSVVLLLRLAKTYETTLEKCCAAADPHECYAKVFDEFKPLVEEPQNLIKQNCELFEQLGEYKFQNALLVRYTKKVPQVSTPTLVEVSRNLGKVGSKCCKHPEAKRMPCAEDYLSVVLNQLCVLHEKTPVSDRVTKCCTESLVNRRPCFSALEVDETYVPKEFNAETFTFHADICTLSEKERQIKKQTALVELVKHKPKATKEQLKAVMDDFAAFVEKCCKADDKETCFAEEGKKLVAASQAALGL
Chain of rat serum albumin (P02770 25-608 limits assumed): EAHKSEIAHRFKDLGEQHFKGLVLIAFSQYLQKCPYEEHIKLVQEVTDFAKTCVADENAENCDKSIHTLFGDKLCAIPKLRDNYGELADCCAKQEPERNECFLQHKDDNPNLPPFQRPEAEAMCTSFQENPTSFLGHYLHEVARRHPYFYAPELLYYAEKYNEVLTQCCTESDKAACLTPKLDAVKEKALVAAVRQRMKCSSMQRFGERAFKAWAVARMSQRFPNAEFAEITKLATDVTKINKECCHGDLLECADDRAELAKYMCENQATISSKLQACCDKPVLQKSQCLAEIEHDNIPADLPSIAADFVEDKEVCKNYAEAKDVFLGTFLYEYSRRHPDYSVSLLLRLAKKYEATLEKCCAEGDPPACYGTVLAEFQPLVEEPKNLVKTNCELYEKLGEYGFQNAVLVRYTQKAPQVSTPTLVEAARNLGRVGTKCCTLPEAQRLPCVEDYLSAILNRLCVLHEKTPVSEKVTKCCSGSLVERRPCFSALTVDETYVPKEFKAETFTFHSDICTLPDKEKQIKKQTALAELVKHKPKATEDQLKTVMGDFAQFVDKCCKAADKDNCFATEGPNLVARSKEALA

Kd (mouse serum albumin): 6.8 nM
koff (mouse serum albumin): 0.0073 s⁻¹
kon (mouse serum albumin): 1.1e+06 M⁻¹ s⁻¹
Kd (human serum albumin [1]): 0.83 nM
koff (human serum albumin [1]): 0.00084 s⁻¹
kon (human serum albumin [1]): 1e+06 M⁻¹ s⁻¹
Kd (guinea pig serum albumin): 5.1 nM
koff (guinea pig serum albumin): 0.0063 s⁻¹
kon (guinea pig serum albumin): 1.2e+06 M⁻¹ s⁻¹
Kd (cyno serum albumin): 0.89 nM
koff (cyno serum albumin): 0.00081 s⁻¹
kon (cyno serum albumin): 910000 M⁻¹ s⁻¹
Kd (rat serum albumin): 180 nM
koff (rat serum albumin): 0.13 s⁻¹
kon (rat serum albumin): 710000 M⁻¹ s⁻¹
B1: SEQ ID NO 10 (VHH)
VHH: EVQLVESGGGVVQPGGSLRLSCAASGFTFRSFGMSWVRQAPGKGPEWVSSISGSGSDTLYADSVKGRFTISRDNSKNTLYLQMNSLRPEDTALYYCTIGGSLSRSSQGTLVTVSS
notes: also called R at position 30

Kd (human serum albumin [2]): 12 nM
koff (human serum albumin [2]): 0.0033 s⁻¹
kon (human serum albumin [2]): 280000 M⁻¹ s⁻¹
B3: Reference A+L11V+V89T+S104T+C-terminal alanine, N-terminal HIS6 tag (VHH)
VHH: EVQLVESGGGVVQPGGSLRLSCAASGFTFRSFGMSWVRQAPGKGPEWVSSISGSGSDTLYADSVKGRFTISRDNSKNTLYLQMNSLRPEDTATYYCTIGGSLSRSTQGTLVTVSS

Kd (human serum albumin [4]): 7.2 nM
koff (human serum albumin [4]): 0.0015 s⁻¹
kon (human serum albumin [4]): 200000 M⁻¹ s⁻¹
B11: Reference A+L11V+V89S+T110K+C-terminal alanine, N-terminal HIS6 tag (VHH)
VHH: HHHHHHEVQLVESGGGVVQPGGSLRLSCAASGFTFRSFGMSWVRQAPGKGPEWVSSISGSGSDTLYADSVKGRFTISRDNSKNTLYLQMNSLRPEDTASYYCTIGGSLSRSSQGTLVKVSSA

Kd (mouse serum albumin): 27 nM
koff (mouse serum albumin): 0.021 s⁻¹
kon (mouse serum albumin): 770000 M⁻¹ s⁻¹
Kd (human serum albumin [1]): 2.1 nM
koff (human serum albumin [1]): 0.0015 s⁻¹
kon (human serum albumin [1]): 710000 M⁻¹ s⁻¹
Kd (guinea pig serum albumin): 13 nM
koff (guinea pig serum albumin): 0.0098 s⁻¹
kon (guinea pig serum albumin): 790000 M⁻¹ s⁻¹
Kd (cyno serum albumin): 2.4 nM
koff (cyno serum albumin): 0.0015 s⁻¹
kon (cyno serum albumin): 640000 M⁻¹ s⁻¹
Kd (rat serum albumin): 490 nM
koff (rat serum albumin): 0.21 s⁻¹
kon (rat serum albumin): 430000 M⁻¹ s⁻¹
B12: SEQ ID NO 129 (VHH)
VHH: DVQLVESGGGVVQPGGSLRLSCAASGFTFTSFGMSWVRQAPGKGPEWVSSISGSGSDTLYADSVKGRFTISRDNSKNTLYLQMNSLRPEDTATYYCTIGGSLSRSGQGTLVTVSS
notes: also called T at position 30

Kd (human serum albumin [2]): 7.6 nM
koff (human serum albumin [2]): 0.0021 s⁻¹
kon (human serum albumin [2]): 280000 M⁻¹ s⁻¹
B13: Reference A+L11V+V89T+T110K+C-terminal alanine, N-terminal HIS6 tag (VHH)
VHH: HHHHHHEVQLVESGGGVVQPGGSLRLSCAASGFTFRSFGMSWVRQAPGKGPEWVSSISGSGSDTLYADSVKGRFTISRDNSKNTLYLQMNSLRPEDTATYYCTIGGSLSRSSQGTLVKVSSA

Kd (mouse serum albumin): 21 nM
koff (mouse serum albumin): 0.017 s⁻¹
kon (mouse serum albumin): 820000 M⁻¹ s⁻¹
Kd (human serum albumin [1]): 2 nM
koff (human serum albumin [1]): 0.0014 s⁻¹
kon (human serum albumin [1]): 730000 M⁻¹ s⁻¹
Kd (guinea pig serum albumin): 8.6 nM
koff (guinea pig serum albumin): 0.0075 s⁻¹
kon (guinea pig serum albumin): 870000 M⁻¹ s⁻¹
Kd (cyno serum albumin): 2.1 nM
koff (cyno serum albumin): 0.0014 s⁻¹
kon (cyno serum albumin): 690000 M⁻¹ s⁻¹
Kd (rat serum albumin): 490 nM
koff (rat serum albumin): 0.22 s⁻¹
kon (rat serum albumin): 450000 M⁻¹ s⁻¹
B14: SEQ ID NO 127 (VHH)
VHH: DVQLVESGGGVVQPGGSLRLSCAASGFTFTSFGMSWVRQAPGKGPEWVSSISGSGSDTLYADSVKGRFTISRDNSKNTLYLQMNSLRPEDTALYYCTIGGSLSRSGQGTLVTVSS
notes: also called T at position 30

Kd (mouse serum albumin): 27 nM
koff (mouse serum albumin): 0.02 s⁻¹
kon (mouse serum albumin): 750000 M⁻¹ s⁻¹
Kd (human serum albumin [1]): 2.1 nM
koff (human serum albumin [1]): 0.0014 s⁻¹
kon (human serum albumin [1]): 690000 M⁻¹ s⁻¹
Kd (guinea pig serum albumin): 13 nM
koff (guinea pig serum albumin): 0.01 s⁻¹
kon (guinea pig serum albumin): 790000 M⁻¹ s⁻¹
Kd (cyno serum albumin): 2.3 nM
koff (cyno serum albumin): 0.0015 s⁻¹
kon (cyno serum albumin): 640000 M⁻¹ s⁻¹
Kd (rat serum albumin): 540 nM
koff (rat serum albumin): 0.23 s⁻¹
kon (rat serum albumin): 420000 M⁻¹ s⁻¹
B21: SEQ ID NO 145 (VHH)
VHH: DVQLVESGGGVVQPGGSLRLSCAASGFTFTSFGMSWVRQAPGKGPEWVSSISGSGSDTLYADSVKGRFTISRDNSKNTLYLQMNSLRPEDTAAYYCTIGGSLSRSGQGTLVTVSS
notes: also called T at position 30

More lines, now with the values behind:

B2: Reference A+L11V+V89T+C-terminal alanine, N-terminal HIS6 tag (VHH)
VHH: EVQLVESGGGVVQPGGSLRLSCAASGFTFRSFGMSWVRQAPGKGPEWVSSISGSGSDTLYADSVKGRFTISRDNSKNTLYLQMNSLRPEDTATYYCTIGGSLSRSSQGTLVTVSS
Kd (human serum albumin [2]): 7.3 nM
koff (human serum albumin [2]): 0.0023 s⁻¹
kon (human serum albumin [2]): 310000 M⁻¹ s⁻¹

B4: Reference A+L11V+R30T+V89L+C-terminal alanine, N-terminal HIS6 tag (VHH)
VHH: EVQLVESGGGVVQPGGSLRLSCAASGFTFTSFGMSWVRQAPGKGPEWVSSISGSGSDTLYADSVKGRFTISRDNSKNTLYLQMNSLRPEDTALYYCTIGGSLSRSSQGTLVTVSS
Kd (human serum albumin [3]): 22 nM
koff (human serum albumin [3]): 0.0026 s⁻¹
kon (human serum albumin [3]): 120000 M⁻¹ s⁻¹

B5: Reference A+L11V+V89N+C-terminal alanine, N-terminal HIS6 tag (VHH)
VHH: EVQLVESGGGVVQPGGSLRLSCAASGFTFRSFGMSWVRQAPGKGPEWVSSISGSGSDTLYADSVKGRFTISRDNSKNTLYLQMNSLRPEDTANYYCTIGGSLSRSSQGTLVTVSS
Kd (human serum albumin [4]): 3.1 nM
koff (human serum albumin [4]): 0.0036 s⁻¹
kon (human serum albumin [4]): 1.2e+06 M⁻¹ s⁻¹

B6: Reference A+L11V+V89L+S101G+C-terminal alanine, N-terminal HIS6 tag (VHH)
VHH: EVQLVESGGGVVQPGGSLRLSCAASGFTFRSFGMSWVRQAPGKGPEWVSSISGSGSDTLYADSVKGRFTISRDNSKNTLYLQMNSLRPEDTALYYCTIGGSLGRSSQGTLVTVSS
Kd (human serum albumin [5]): 16 nM
koff (human serum albumin [5]): 0.0017 s⁻¹
kon (human serum albumin [5]): 110000 M⁻¹ s⁻¹

B7: Reference A+L11V+V89L+S101H+C-terminal alanine, N-terminal HIS6 tag (VHH)
VHH: EVQLVESGGGVVQPGGSLRLSCAASGFTFRSFGMSWVRQAPGKGPEWVSSISGSGSDTLYADSVKGRFTISRDNSKNTLYLQMNSLRPEDTALYYCTIGGSLHRSSQGTLVTVSS
Kd (human serum albumin [6]): 24 nM
koff (human serum albumin [6]): 0.0026 s⁻¹
kon (human serum albumin [6]): 110000 M⁻¹ s⁻¹

B8: Reference A+L11V+V89L+R102D+C-terminal alanine, N-terminal HIS6 tag (VHH)
VHH: EVQLVESGGGVVQPGGSLRLSCAASGFTFRSFGMSWVRQAPGKGPEWVSSISGSGSDTLYADSVKGRFTISRDNSKNTLYLQMNSLRPEDTALYYCTIGGSLSDSSQGTLVTVSS
Kd (human serum albumin [6]): 82 nM
koff (human serum albumin [6]): 0.0051 s⁻¹
kon (human serum albumin [6]): 62000 M⁻¹ s⁻¹

B9: Reference A+L11V+V89L+S104A+C-terminal alanine, N-terminal HIS6 tag (VHH)
VHH: EVQLVESGGGVVQPGGSLRLSCAASGFTFRSFGMSWVRQAPGKGPEWVSSISGSGSDTLYADSVKGRFTISRDNSKNTLYLQMNSLRPEDTALYYCTIGGSLSRSAQGTLVTVSS
Kd (human serum albumin [5]): 30 nM
koff (human serum albumin [5]): 0.0022 s⁻¹
kon (human serum albumin [5]): 72000 M⁻¹ s⁻¹

B10: Reference A+L11V+V89N+T110K+C-terminal alanine, N-terminal HIS6 tag (VHH)
VHH: HHHHHHEVQLVESGGGVVQPGGSLRLSCAASGFTFRSFGMSWVRQAPGKGPEWVSSISGSGSDTLYADSVKGRFTISRDNSKNTLYLQMNSLRPEDTANYYCTIGGSLSRSSQGTLVKVSSA
Kd (human serum albumin [4]): 7.3 nM
koff (human serum albumin [4]): 0.0016 s⁻¹
kon (human serum albumin [4]): 220000 M⁻¹ s⁻¹

B15: Reference A+L11V+V89A+T110K+C-terminal alanine, N-terminal HIS6 tag (VHH)
VHH: HHHHHHEVQLVESGGGVVQPGGSLRLSCAASGFTFRSFGMSWVRQAPGKGPEWVSSISGSGSDTLYADSVKGRFTISRDNSKNTLYLQMNSLRPEDTAAYYCTIGGSLSRSSQGTLVKVSSA
Kd (human serum albumin [7]): 6.5 nM
koff (human serum albumin [7]): 0.0018 s⁻¹
kon (human serum albumin [7]): 270000 M⁻¹ s⁻¹

B16: Reference A+L11V+V89L+S101E+C-terminal alanine, N-terminal HIS6 tag (VHH)
VHH: EVQLVESGGGVVQPGGSLRLSCAASGFTFRSFGMSWVRQAPGKGPEWVSSISGSGSDTLYADSVKGRFTISRDNSKNTLYLQMNSLRPEDTALYYCTIGGSLERSSQGTLVTVSS
Kd (human serum albumin [5]): 30 nM
koff (human serum albumin [5]): 0.0044 s⁻¹
kon (human serum albumin [5]): 150000 M⁻¹ s⁻¹

B17: Reference A+L11V+V89A+C-terminal alanine, N-terminal HIS6 tag (VHH)
VHH: EVQLVESGGGVVQPGGSLRLSCAASGFTFRSFGMSWVRQAPGKGPEWVSSISGSGSDTLYADSVKGRFTISRDNSKNTLYLQMNSLRPEDTAAYYCTIGGSLSRSSQGTLVTVSS
Kd (human serum albumin [7]): 7.3 nM
koff (human serum albumin [7]): 0.0019 s⁻¹
kon (human serum albumin [7]): 260000 M⁻¹ s⁻¹

B18: Reference A+L11V+V89L+S104G+C-terminal alanine, N-terminal HIS6 tag (VHH)
VHH: EVQLVESGGGVVQPGGSLRLSCAASGFTFRSFGMSWVRQAPGKGPEWVSSISGSGSDTLYADSVKGRFTISRDNSKNTLYLQMNSLRPEDTALYYCTIGGSLSRSGQGTLVTVSS
Kd (human serum albumin [7]): 8.3 nM
koff (human serum albumin [7]): 0.0022 s⁻¹
kon (human serum albumin [7]): 260000 M⁻¹ s⁻¹

B19: Reference A+L11V+V89S+C-terminal alanine, N-terminal HIS6 tag (VHH)
VHH: EVQLVESGGGVVQPGGSLRLSCAASGFTFRSFGMSWVRQAPGKGPEWVSSISGSGSDTLYADSVKGRFTISRDNSKNTLYLQMNSLRPEDTASYYCTIGGSLSRSSQGTLVTVSS
Kd (human serum albumin [3]): 11 nM
koff (human serum albumin [3]): 0.0017 s⁻¹
kon (human serum albumin [3]): 160000 M⁻¹ s⁻¹

B20: Reference A+L11V+S31D+V89L+C-terminal alanine, N-terminal HIS6 tag (VHH)
VHH: EVQLVESGGGVVQPGGSLRLSCAASGFTFRDFGMSWVRQAPGKGPEWVSSISGSGSDTLYADSVKGRFTISRDNSKNTLYLQMNSLRPEDTALYYCTIGGSLSRSSQGTLVTVSS
Kd (human serum albumin [3]): 20 nM
koff (human serum albumin [3]): 0.0032 s⁻¹
kon (human serum albumin [3]): 160000 M⁻¹ s⁻¹
